US20150005474A1 (GLYCOTOPE, published 2015)

Target: MUC1 (polymorphic epithelial mucin) on human tumor cells (human, UniProt P15941 24-1255)
Assay: cell binding test with radiolabelled antibody on K562 cells, Scatchard analysis

MUC1 (polymorphic epithelial mucin) on human tumor cells, sequence (P15941 24-1097, chain 1 of 2): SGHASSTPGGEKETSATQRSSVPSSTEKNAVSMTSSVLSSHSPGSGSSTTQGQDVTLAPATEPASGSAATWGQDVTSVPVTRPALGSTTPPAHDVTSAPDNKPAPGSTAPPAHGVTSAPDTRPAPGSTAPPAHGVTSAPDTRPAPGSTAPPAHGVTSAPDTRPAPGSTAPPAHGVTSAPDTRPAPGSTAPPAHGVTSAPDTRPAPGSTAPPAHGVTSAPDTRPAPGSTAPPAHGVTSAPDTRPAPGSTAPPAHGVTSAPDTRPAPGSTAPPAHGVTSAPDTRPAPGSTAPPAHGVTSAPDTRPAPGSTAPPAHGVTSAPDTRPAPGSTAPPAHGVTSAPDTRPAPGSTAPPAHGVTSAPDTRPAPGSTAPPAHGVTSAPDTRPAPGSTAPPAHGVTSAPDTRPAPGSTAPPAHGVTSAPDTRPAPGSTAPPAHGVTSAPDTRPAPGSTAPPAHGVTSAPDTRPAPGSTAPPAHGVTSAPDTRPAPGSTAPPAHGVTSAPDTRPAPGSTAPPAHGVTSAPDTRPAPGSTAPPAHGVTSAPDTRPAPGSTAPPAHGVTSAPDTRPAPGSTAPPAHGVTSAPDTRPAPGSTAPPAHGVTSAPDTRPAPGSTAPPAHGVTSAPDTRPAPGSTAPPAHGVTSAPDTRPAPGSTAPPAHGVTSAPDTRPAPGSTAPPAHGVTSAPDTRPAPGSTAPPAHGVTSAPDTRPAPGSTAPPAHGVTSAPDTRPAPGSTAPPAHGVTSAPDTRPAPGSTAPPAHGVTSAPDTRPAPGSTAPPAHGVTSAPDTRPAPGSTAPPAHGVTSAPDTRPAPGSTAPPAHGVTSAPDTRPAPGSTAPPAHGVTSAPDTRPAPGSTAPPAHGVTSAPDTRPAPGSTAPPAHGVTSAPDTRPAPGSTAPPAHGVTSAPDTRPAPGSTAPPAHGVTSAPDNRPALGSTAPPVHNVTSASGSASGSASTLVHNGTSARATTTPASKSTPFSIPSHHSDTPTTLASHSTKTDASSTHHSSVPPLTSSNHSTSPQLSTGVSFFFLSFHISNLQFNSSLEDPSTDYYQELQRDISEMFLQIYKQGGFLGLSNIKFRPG
MUC1 (polymorphic epithelial mucin) on human tumor cells, sequence (P15941 1098-1255, chain 2 of 2): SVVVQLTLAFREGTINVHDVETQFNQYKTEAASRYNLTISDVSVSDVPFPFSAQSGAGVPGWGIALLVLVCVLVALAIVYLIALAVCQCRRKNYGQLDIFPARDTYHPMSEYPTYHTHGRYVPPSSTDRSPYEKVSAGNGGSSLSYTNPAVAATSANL

B1: HMFG-1 (antibody, V domains shown)
VH: QVQLVQSGAEVKKPGASVKVSCKASGYTFSAYWIEWVRQAPGKGLEWVGEILPGSNNSRYNEKFKGRVTVTRDTSTNTAYMELSSLRSEDTAVYYCARSYDFAWFAYWGQGTLVTVSS
VL: DIQMTQSPSSLSASVGDRVTITCKSSQSLLYSSNQKIYLAWYQQKPGKAPKLLIYWASTRESGVPSRFSGSGSGTDFTFTISSLQPEDIATYYCQQYYRYPRTFGQGTKVEIKR
Ka: 2.7e+08 M⁻¹
